Experimental data published in PMC5021521, “Coordinated recruitment of Spir actin nucleators and myosin V motors to Rab11 vesicle membranes” (eLife, 2016).
One block for each molecule: values may come before it.

Columns and labels:
HeLa cells = experiment: Subcellular localization by fluorescence microscopy; format: cell-based
Protocol: HeLa cells were seeded on microscope cover glasses and transfected with Myc-epitope-tagged Spir-2 proteins and fluorescently-tagged MyoV and Rab11 proteins as described above. Cells were fixed with paraformaldehyde (3.7% in 1x PBS) for 20 min at 4°C and subsequently permeabilized using 0.2% Triton X-100 (in 1x PBS) for 3.5 min, room temperature. Cells were incubated with anti-c-Myc antibody (9E10, mouse monoclonal, 2 µg/ml, Santa Cruz Biotechnology; RRID: AB_627268) for 1 hr at room temperature and conjugated anti-mouse secondary antibodies (Cy5; from donkey, 3.25 µg/ml, Dianova (RRID: AB_2340820) and TRITC; from donkey, 3.125 µg/ml, Dianova (RRID: AB_2340767)) for 1 hr at room temperature avoiding exposure to light. Finally, cells were mounted on microscope slides with Mowiol and analyzed with a Leica AF6000LX fluorescence microscope, equipped with a Leica HCX PL APO 63x/1.3 GLYC objective and a Leica DFC350 FX digital camera (1392 × 1040 pixels, 6.45 × 6.45 µm pixel size). 3D stacks were recorded and processed with the Leica deconvolution software module. In case of the MyoVa autoregulation/activation experiments, we quantified the MyoVa expression levels. […] In order to clearly distinguish between vesicular and cytoplasmic MyoVa localization, we imaged either high or low expressing cells and determined the sum of pixel gray values per cell as a measure for the MyoVa expression levels. Based on that, we only used cells for the autoregulation analysis having a sum of pixel gray values less than 20 × 10^6 for the expression of GFP-MyoVa-D-FL. Images were recorded using the Leica LASX software and further processed with Adobe Photoshop and subsequently assembled with Adobe Illustrator.

[1] = test system: Spir-2:MyoVa:Rab11 tripartite complex; experiment: Analytical gel filtration; format: binding, Homo sapiens; settings: Superdex 200 10/30; 50 mM Tris pH 8.0, 150 mM NaCl, 2 mM MgCl2, 2 mM TCEP
Protocol: Complex formations were analyzed by analytical gel-filtration using Superdex 200 10/30 Increase column (GE Healthcare Life Sciences) and UV light absorbance at 280 nm and 260 nm and Visible light absorbance at 587 nm at flow rate of 0.75 ml/min in 50 mM Tris pH 8.0, 150 mM NaCl, 2 mM MgCl2, 2 mM TCEP buffer. Fractions of 500 µl were collected and analyzed by SDS-PAGE.
A 100 µl sample of His6-Rab11a-1-173-Q70L at 6 mg/ml, or of MyoVa-GTD at 5 mg/ml or of His6-mCherry-Spir-2-linker at 6 mg/ml were centrifuged at 10,000 x g for 10 min and injected into the column to monitor reference elution profiles of the individual proteins. The proteins were mixed pairwise to the same final concentrations and incubated 30 min at 4°C in a total volume of 100 µl. The two-component complexes (His6-mCherry-Spir-2-linker:MyoVa-GTD and MyoVa-GTD:His6-Rab11a-1-173-Q70L) were confirmed by the elution peak shifts and SDS-PAGE analysis. […] The tripartite His6-mCherry-Spir-2-linker:MyoVa-GTD:His6-Rab11a-1-173-Q70L complex was analyzed at the same concentration of the individual components and confirmed by SDS-PAGE.

MyoVa-GTD = biological target: T1, MyoVa-GTD (Homo sapiens, UniProt Q9Y4I1); experiment: Surface plasmon resonance, Rab11a captured; format: binding
T1 construct: aa 1461 - 1853 (BamHI / XhoI); His6 (6xHis) with rTEV site (N, cleaved yes); made in house; host or cells: Escherichia coli BL21(DE3) or BL21-CodonPlus-RILP
Protocol: The assays were carried out at 25°C in buffer (50 mM Hepes pH 7.5, 100 mM NaCl, 2 mM MgCl2, 1 mM TCEP). 200–250 resonance units (RU; 1RU ≈ 1 pg × mm^−2) of Rab11a-Q70L(GTP) or Rab11-wt(GDP) were captured through their His6-tag on the surface of a NTA sensorchip using a Biacore 2000 instrument (GE Healthcare Life Sciences). MyoVa-GTD or MyoVb-GTD (10 nM–5 µM) were then injected over the tethered Rabs for one minute at a flow rate of […]. The surface was regenerated with a 2-min 0.3 M EDTA incubation and a 1-min 0.1% SDS wash. The real-time interaction profiles were double referenced using the Scrubber 2.0 software (BioLogic Software, Campbell, Australia), both the signals from a reference surface (with a non-relevant protein captured on NTA) and from blank experiments using buffer instead of MyoV-GTD were subtracted. The MyoV-GTD concentration-dependence of the steady-state SPR signals was then analyzed to determine the dissociation equilibrium constants (Kd) of the different complexes using the numerical integration algorithm software Biaevaluation 4.1. Each experiment (10 point 2-fold dilution concentration series each) was repeated in triplicate, yielding mean Kd values and standard errors (SEM).

AcGFP-MyoVa-GTD = experiment: FLIM-FRET at vesicle membranes in HeLa cells; format: cell-based, Mus musculus; settings: AcGFP-MyoVa-GTD donor
Protocol: Fluorescence lifetimes were imaged with a commercial FLIM upgrade kit (PicoQuant, Berlin, Germany) attached to a confocal microscope LSM 880 (Zeiss, Jena, Germany) using a 440 nm pulsed laser diode at 20 MHz repetition rate. The fluorescence was detected using the Big.2-unit (Zeiss) fed into the TimeHarp 260 photon counting board (PicoQuant). Time series of FLIM images were recorded until bright pixels accumulated at least 1000 photon events. Before pixel wise fitting (Symphotime, 64-bit, version 2, PicoQuant), a region of interest was defined manually by setting a threshold for selecting pixels of high intensity (100–300 photon events per pixel). Fitting employed an exponential two-component model to 20 ns of the decay without binning. Lifetime images contained the color coded, intensity weighted average in each pixel.
For an improved automated selection of vesicular structures in cells, we followed a previously established semi-automated approach ([Austen et al., 2015]). Briefly, confocal imaging was done using a Leica TCS SP5 X confocal microscope equipped with a pulsed white light laser (WLL, 80 MHz repetition rate; NKT Photonics, Birkerod, Denmark), a FLIM X16 TCSPC detector (LaVision Biotec, Bielefeld, Germany) and a 63x water objective (HCX PL APO CS, NA = 1.2). A band-pass filter 514/30 (AHF Analysentechnik, Tübingen, Germany) was used to block acceptor emitted photons. Data analysis includes manual selection of the cytoplasmic regions followed by a threshold algorithm, segmenting high intensity regions based on spatial signal changes at varying levels. The custom-written MATLAB program ([Austen et al., 2015]) calculates the average FRET efficiency E according to E = 1−τDA/τD
with τD as the mean donor lifetime τDA as mean donor lifetime in presence of an acceptor fluorophore. E represents the entire ROI of a single cell. Here, fitting employed an exponential one-component fit to 10 ns of decay; the first 0.5 ns were omitted due to the instrumental response. […]

T1 sequence (Q9Y4I1 1463-1855): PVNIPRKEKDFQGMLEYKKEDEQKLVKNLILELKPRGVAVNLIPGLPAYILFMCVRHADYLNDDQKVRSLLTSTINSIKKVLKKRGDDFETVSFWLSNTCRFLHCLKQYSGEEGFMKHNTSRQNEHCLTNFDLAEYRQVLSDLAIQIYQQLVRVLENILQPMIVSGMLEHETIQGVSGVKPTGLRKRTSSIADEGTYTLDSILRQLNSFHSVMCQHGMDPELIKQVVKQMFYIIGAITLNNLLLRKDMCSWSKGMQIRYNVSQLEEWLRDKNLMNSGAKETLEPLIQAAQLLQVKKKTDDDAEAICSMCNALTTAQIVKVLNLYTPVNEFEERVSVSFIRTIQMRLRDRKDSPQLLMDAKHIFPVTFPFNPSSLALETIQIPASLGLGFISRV

B1: Myc-Spir-2-KIND-WH2-GTBM: Myc-hs-Spir2-KIND-WH2-GTBM aa 2 - 437 (protein, UniProt Q8WWL2 2-437, looked up, fragment)
chain: ARAGSCGGAAAGAGRPEPWELSLEEVLKAYEQPLNEEQAWAVCFQGCRGLRGSPGRRLRDTGDLLLRGDGSVGAREPEAAEPATMVVPLASSEAQTVQSLGFAIYRALDWGLDESEERELSPQLERLIDLMANNDSEDSGCGAADEGYGGPEEEEEAEGVPRSVRTFAQAMRLCAARLTDPRGAQAHYQAVCRALFVETLELRAFLARVREAKEMLQKLREDEPHLETPRAELDSLGHTDWARLWVQLMRELRRGVKLKKVQEQEFNPLPTEFQLTPFEMLMQDIRARNYKLRKVMVDGDIPPRVKKDAHELILDFIRSRPPLKQVSERRLRPLPPKQRSLHEKILEEIKQERRLRPVRGEGWAARGFGSLPCILNACSGDAKSTSCINLSVTDAGGSAQRPRPRVLLKAPTLAEMEEMNTSEEEESPCGEVTLKR
modifications: Myc tag
subcellular localization in words (HeLa cells; co-expression of eGFP-MyoVa-FL and N-terminal Spir-2 fragment): both proteins localize to vesicle membranes
subcellular localization in words (HeLa cells; single expression): even cytoplasmic and nuclear localization

B2: Rab11a-Q70L: hs-Rab11a-Q70L aa 1 - 173, GTP-locked mutant (protein)
chain: MGTRDDEYDYLFKVVLIGDSGVGKSNLLSRFTRNEFNLESKSTIGVEFATRSIQVDGKTIKAQIWDTAGLERYRAITSAYYRGAVGALLVYDIAKHLTYENVERWLKELRDHADSNIVIMLVGNKSDLRHLRAVPTDEARAFAEKNGLSFIETSALDSTNVEAAFQTILTEIY
modifications: left off: His6, N-terminal, kept
notes: hs-Rab11a-Q70L aa 1 - 173, GTP-locked mutant
co-elution in gel filtration in words [1]: co-elution of all three proteins

Kd (MyoVa-GTD; MyoVa-GTD 10 nM–5 µM over captured Rab11a-Q70L(GTP) or Rab11-wt(GDP), 50 mM Hepes pH 7.5, 100 mM NaCl, 2 mM MgCl2, 1 mM TCEP, 25°C, steady state, mean ± SEM, N = 3, read-out: dissociation equilibrium constant (Kd)): 2620 ± 490 nM
affinity in words (MyoVa-GTD; Rab11-GDP for MyoVa): relatively high affinity
B3: Rab11GDP: Rab11-wt(GDP) captured through its His6-tag (protein)
chain: MGTRDDEYDYLFKVVLIGDSGVGKSNLLSRFTRNEFNLESKSTIGVEFATRSIQVDGKTIKAQIWDTAGQERYRAITSAYYRGAVGALLVYDIAKHLTYENVERWLKELRDHADSNIVIMLVGNKSDLRHLRAVPTDEARAFAEKNGLSFIETSALDSTNVEAAFQTILTEIYRIVS
modifications: left off: His6, N-terminal, kept
notes: Rab11-wt(GDP) captured through its His6-tag

B4: mStrawberry-Spir-2-SB-FYVE: mStrawberry-hs-Spir2-SB-FYVE aa 438 - 714 (protein)
chain: DRSFSEHDLAQLRSEVASGLQSATHPPGGTEPPRPRAGSAHVWRPGSRDQGTCPASVSDPSHPLLSNRGSSGDRPEASMTPDAKHLWLEFSHPVESLALTVEEVMDVRRVLVKAEMEKFLQNKELFSSLKKGKICCCCRAKFPLFSWPPSCLFCKRAVCTSCSIKMKMPSKKFGHIPVYTLGFESPQRVSAAKTAPIQRRDIFQSLQGPQWQSVEEAFPHIYSHGCVLKDVCSECTSFVADVVRSSRKSVDVLNTTPRRSRQTQSLYIPNTRTLDFK
modifications: left off: mStrawberry, end not stated, kept
fluorescence lifetime / FRET result in words (AcGFP-MyoVa-GTD): did not alter the lifetime

B5: mStrawberry-Spir-2-GTBM-SB-FYVE: mStrawberry-hs-Spir2-GTBM-SB-FYVE aa 361 - 714 (protein)
chain: GEGWAARGFGSLPCILNACSGDAKSTSCINLSVTDAGGSAQRPRPRVLLKAPTLAEMEEMNTSEEEESPCGEVTLKRDRSFSEHDLAQLRSEVASGLQSATHPPGGTEPPRPRAGSAHVWRPGSRDQGTCPASVSDPSHPLLSNRGSSGDRPEASMTPDAKHLWLEFSHPVESLALTVEEVMDVRRVLVKAEMEKFLQNKELFSSLKKGKICCCCRAKFPLFSWPPSCLFCKRAVCTSCSIKMKMPSKKFGHIPVYTLGFESPQRVSAAKTAPIQRRDIFQSLQGPQWQSVEEAFPHIYSHGCVLKDVCSECTSFVADVVRSSRKSVDVLNTTPRRSRQTQSLYIPNTRTLDFK
modifications: left off: mStrawberry, end not stated, kept
fluorescence lifetime / FRET result in words (AcGFP-MyoVa-GTD): able to reduce the fluorescence lifetime

B6: Spir-2-GTBM-SB-FYVE-LALA: mStrawberry-hs-Spir2-GTBM-SB-FYVE-L408A,L409A (protein)
chain: GEGWAARGFGSLPCILNACSGDAKSTSCINLSVTDAGGSAQRPRPRVAAKAPTLAEMEEMNTSEEEESPCGEVTLKRDRSFSEHDLAQLRSEVASGLQSATHPPGGTEPPRPRAGSAHVWRPGSRDQGTCPASVSDPSHPLLSNRGSSGDRPEASMTPDAKHLWLEFSHPVESLALTVEEVMDVRRVLVKAEMEKFLQNKELFSSLKKGKICCCCRAKFPLFSWPPSCLFCKRAVCTSCSIKMKMPSKKFGHIPVYTLGFESPQRVSAAKTAPIQRRDIFQSLQGPQWQSVEEAFPHIYSHGCVLKDVCSECTSFVADVVRSSRKSVDVLNTTPRRSRQTQSLYIPNTRTLDFK
modifications: left off: mStrawberry, end not stated, kept
notes: mStrawberry-hs-Spir2-GTBM-SB-FYVE-L408A,L409A
fluorescence lifetime / FRET result in words (AcGFP-MyoVa-GTD): did not alter the lifetime
